We go through 3 molecules from publication PMC3852207, “The Structure of the RLIP76 RhoGAP-Ral Binding Domain Dyad: Fixed Position of the Domains Leads to Dual Engagement of Small G Proteins at the Membrane” (Structure(London, England:1993), 2013).

B2: His-RLIP76 GAP insert (RLIP76 GAP domain with the F-G loop of p50 RhoGAP) (domain or fragment)
chain: PNLKPIFGIPLADAVERTMMYDGIRLPAVFRECIDYVEKYGMKCEGIYRVSGIKSKVDELKAAYDREESTNLEDYEPNTVASLLKQYLRDLPENLLTKELMPRFEEACGRTTETEKVQEFQRLLKELPECNYLLISWLIVHMDHVIAKELETKMNIQNISIVLSPTVLWAKDAAITLKAINPINRVLYVFFTHVQELFGNVVLKQVMKPL
notes: Made from the pET16b RLIP GAP domain construct; also called GAP insert mutant; RLIP76 GAP insert domain

Experiment [1] has as its target B2. Description: scintillation proximity assay (competition); competitor titrated into 30 nM [3H]GTP·Rac1 or [3H]GTP·Cdc42 and 30 nM GST-p50 RhoGAP immobilised on fluoromicrospheres via an anti-GST antibody; partial competition model for RLIP76 GAP and didomain, full competition for GAP insert and free p50 RhoGAP. Conditions: both partners purified. (SPA uses beads or plates that emit light when radiolabelled molecules are held near them.)

The target of experiment [2] is T1, GST-PAK1 (UniProt Q13153 1-545).
T1 construct: PAK1, positive control effector of Cdc42 and Rac1
Description: scintillation proximity assay (direct); GST-PAK1 on SPA beads as control binding partner; concentration of Q61L Rac1/Cdc42·[3H]GTP varied; apparent Kd. Conditions: both partners purified.

Experiment [3] deals with Q61L Rac1·[3H]GTP (UniProt P63000 1-192, Q61L). The experiment in a line: scintillation proximity assay (competition); competitor titrated into 30 nM [3H]GTP·Rac1 or [3H]GTP·Cdc42 and 30 nM GST-p50 RhoGAP immobilised on fluoromicrospheres via an anti-GST antibody; partial competition model for RLIP76 GAP and didomain, full competition for GAP insert and free p50 RhoGAP. Conditions: both partners purified.

Experiment [4] deals with T2, His-RLIP76 GAP-GBD didomain (residues 184-446) (human, UniProt Q15311 184-446).
T2 construct: Construct details are in Rajasekar et al., 2012; also called RLIP76 didomain; RhoGAP-GBD didomain; source: expressed and purified as described previously (Rajasekar et al., 2012)
T2 sequence (looked up): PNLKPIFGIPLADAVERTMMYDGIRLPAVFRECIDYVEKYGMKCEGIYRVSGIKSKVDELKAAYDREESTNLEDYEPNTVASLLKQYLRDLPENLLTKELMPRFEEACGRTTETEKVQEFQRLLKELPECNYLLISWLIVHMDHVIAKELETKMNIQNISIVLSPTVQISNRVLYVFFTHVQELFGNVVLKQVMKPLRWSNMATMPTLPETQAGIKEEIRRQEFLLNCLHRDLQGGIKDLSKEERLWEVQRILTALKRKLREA
The experiment in a line: not stated; data not shown.

B1: Q61L Cdc42·[3H]GTP (natural protein)
chain: not shown
notes: Cdc42, GTPase-deficient mutant Q61L, loaded with [3H]GTP; Q61L is stated for the SPA experiments in general; also called [3H]GTP·Cdc42
Take B1: the Kd worked out at 1270 nM in experiment [1] and 32 nM in experiment [2]. In experiment [3], B2 showed a Kd of 1440 nM.

B3: RalB (natural protein, UniProt P11234 1-206, looked up)
chain: MAANKSKGQSSLALHKVIMVGSGGVGKSALTLQFMYDEFVEDYEPTKADSYRKKVVLDGEEVQIDILDTAGQEDYAAIRDNYFRSGEGFLLVFSITEHESFTATAEFREQILRVKAEEDKIPLLVVGNKSDLEERRQVPVEEARSKAEEWGVQYVETSAKTRANVDKVFFDLMREIRTKKMSENKDKNGKKSSKNKKSFKERCCLL
notes: RalB small GTPase
B3: the Kd in experiment [4] is around 200 nM.
